Assay results: paper PMC7491322, “Molecular basis for the distinct cellular functions of the Lsm1–7 and Lsm2–8 complexes” (RNA, 2020)

T1: S. pombe Lsm2 (S. pombe, UniProt O94408 1-96)
T1 construct: Lsm2, S. pombe, codon-optimised open reading frame, no purification tag; source: E. coli BL21(DE3) STAR pLysS, coexpressed with the other Lsm proteins, purified as part of the Lsm2–8 or Lsm1–7 complex
T1 sequence (looked up): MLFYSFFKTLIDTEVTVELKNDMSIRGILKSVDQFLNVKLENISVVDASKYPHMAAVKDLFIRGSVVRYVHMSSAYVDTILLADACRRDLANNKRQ

T2: S. pombe Lsm4 (S. pombe, UniProt O14352 1-121)
T2 construct: Lsm4, S. pombe, codon-optimised open reading frame; noncleavable tag; source: E. coli BL21(DE3) STAR pLysS, coexpressed with the other Lsm proteins, purified as part of the Lsm2–8 or Lsm1–7 complex; not shown: Strep-II, C-terminal, kept
T2 sequence (looked up): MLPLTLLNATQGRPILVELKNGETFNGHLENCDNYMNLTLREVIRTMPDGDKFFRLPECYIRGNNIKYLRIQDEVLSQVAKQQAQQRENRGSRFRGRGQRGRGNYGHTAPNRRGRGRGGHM

B1: S. pombe Lsm6 (natural protein, UniProt Q9UUI1 1-75, looked up)
chain: MDSSPNEFLNKVIGKKVLIRLSSGVDYKGILSCLDGYMNLALERTEEYVNGKKTNVYGDAFIRGNNVLYVSALDD
notes: Lsm6, S. pombe, codon-optimised open reading frame; source: E. coli BL21(DE3) STAR pLysS, coexpressed with the other Lsm proteins, purified as part of the Lsm2–8 or Lsm1–7 complex; not shown: MBP, N-terminal, cleaved
B2: S. pombe Lsm3 (natural protein)
chain: not shown
notes: Lsm3, S. pombe, codon-optimised open reading frame; TEV site between GST and Lsm3; The complex was held through the GST on Lsm3 on glutathione agarose during the purification; TEV protease was added to the eluate before the later steps and the crystallisation; source: E. coli BL21(DE3) STAR pLysS, coexpressed with the other Lsm proteins, purified as part of the Lsm2–8 or Lsm1–7 complex; not …
B3: S. pombe Lsm8 (natural protein, UniProt O74483 2-94, looked up)
chain: SLADFMEQRVQVITNDGRVVLGSLKGFDHTTNLILSDSFERIISMDQDMETIPLGVYLLRGENVAMVGLVNEELDSEIEWTKIRGEAIPDVVH
notes: Lsm8, S. pombe, codon-optimised open reading frame, no purification tag; amino-terminal methionine missing by ESI-MS; source: E. coli BL21(DE3) STAR pLysS, coexpressed with the other Lsm proteins, purified as part of the Lsm2–8 complex

Legend:
Conditions in all cases: both partners purified
S. pombe Lsm5 = molecular target: T3, S. pombe Lsm5 (S. pombe, UniProt O42978 2-80); assay: crystal structure; Lsm1_(Δ56C)–7 ring with UUUUUA (1.8 Å) or AUUUUG (2.1 Å); 10% PEG 8000, 20% ethylene glycol, HEPES/MOPS
T3 construct: Lsm5, S. pombe, codon-optimised open reading frame, no purification tag; amino-terminal methionine missing by ESI-MS; source: E. coli BL21(DE3) STAR pLysS, coexpressed with the other Lsm proteins, purified as part of the Lsm2–8 or Lsm1–7 complex

S. pombe Lsm3 [1] = molecular target: B2; assay: as above
S. pombe Lsm2 [2] = molecular target: T1, S. pombe Lsm2; assay: as above
S. pombe Lsm4 = molecular target: T2, S. pombe Lsm4; assay: crystal structure; Lsm2–8 ring with UUUUU-3′-OH (1.9 Å) or UUUUU>p (2.3 Å); hanging drop, 16°C, 100–200 mM KCl, 50–100 mM HEPES pH 7.4, 35% pentaerythritol propoxylate
S. pombe Lsm2 [3] = molecular target: T1, S. pombe Lsm2; assay: as above
S. pombe Lsm3 [4] = molecular target: B2; assay: as above

Sequence of S. pombe Lsm3 (Q9Y7M4 whole entry): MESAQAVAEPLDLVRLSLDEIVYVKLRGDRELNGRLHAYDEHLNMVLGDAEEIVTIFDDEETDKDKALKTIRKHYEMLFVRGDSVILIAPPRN
T3 sequence (O42978 2-80): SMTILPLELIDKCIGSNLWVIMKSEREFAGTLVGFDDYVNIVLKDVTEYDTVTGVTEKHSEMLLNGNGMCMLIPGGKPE

B1
binding result (S. pombe Lsm5): binds
binding result (S. pombe Lsm3 [1]): binds

B2
binding result (S. pombe Lsm2 [2]): binds

B3
binding result (S. pombe Lsm4): binds
binding result (S. pombe Lsm2 [3]): binds
binding result (S. pombe Lsm3 [4]): binds
